{"source": "patent US20220227882A1", "about": "(TRUSTEES OF TUFTS COLLEGE, published 2022)", "key": {"V459A": {"biological_target": "T1, V459A (Homo sapiens, UniProt P78325)", "T1 construct": "expressed on HEK293 cells; also called human ADAM8 point mutant V459A", "T1 sequence (ADAM8, looked up)": "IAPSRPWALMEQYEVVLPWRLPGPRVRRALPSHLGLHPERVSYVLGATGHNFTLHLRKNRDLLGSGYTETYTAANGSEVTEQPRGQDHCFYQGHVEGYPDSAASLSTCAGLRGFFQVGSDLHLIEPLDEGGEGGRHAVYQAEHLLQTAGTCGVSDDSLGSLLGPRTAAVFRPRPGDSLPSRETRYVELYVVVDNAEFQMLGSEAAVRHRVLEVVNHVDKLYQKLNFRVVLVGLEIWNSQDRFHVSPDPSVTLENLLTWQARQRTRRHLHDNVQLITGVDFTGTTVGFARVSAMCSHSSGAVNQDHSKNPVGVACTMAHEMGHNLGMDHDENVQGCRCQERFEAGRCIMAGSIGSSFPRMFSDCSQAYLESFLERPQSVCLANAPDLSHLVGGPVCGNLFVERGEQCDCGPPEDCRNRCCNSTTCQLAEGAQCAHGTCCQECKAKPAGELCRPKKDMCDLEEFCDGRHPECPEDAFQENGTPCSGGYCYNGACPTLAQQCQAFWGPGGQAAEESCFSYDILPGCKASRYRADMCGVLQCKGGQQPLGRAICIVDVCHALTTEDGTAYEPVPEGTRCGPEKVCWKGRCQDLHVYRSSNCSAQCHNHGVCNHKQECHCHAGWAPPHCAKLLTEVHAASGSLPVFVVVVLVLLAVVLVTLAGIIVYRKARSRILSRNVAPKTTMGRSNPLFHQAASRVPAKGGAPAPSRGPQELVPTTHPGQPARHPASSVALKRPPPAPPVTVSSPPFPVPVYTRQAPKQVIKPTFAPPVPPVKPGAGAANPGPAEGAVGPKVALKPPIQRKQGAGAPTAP", "experiment": "high-throughput flow cytometry, HEK293 cells with mutant ADAM8, high stringency; range in parentheses; dotted box", "procedure": "(§1) A variety of experimental parameters were optimized for high-throughput flow cytometry including blocking buffer, and primary and secondary antibody concentrations, to identify the optimal conditions for screening. Through these studies ADP2 and ADP13 were determined to be high affinity binding antibodies.\n(§2) Thus, for these studies antigen-binding fragments (Fabs) of ADP2 and ADP13, which bind with lower affinity than the full antibody, were generated. In addition, higher binding stringency conditions were tested, such as increased pH, salinity, and temperature, and/or increased washing, to weaken binding sufficiently to allow identification of critical binding residues in flow cytometry. The final experimental flow cytometry conditions were: primary antibody incubation with ADP2 Fab (0.50 μg/ml), ADP13 Fab (5.00 μg/ml) and Control Ab (0.16 μg/ml) for 60 minutes in flow cytometry buffer containing 10% goat serum in PBS (Ca²⁺ and Mg²⁺ free). […] Samples were washed three times after primary antibody incubation and twice after secondary antibody incubation with PBS (Ca²⁺ and Mg′ free). Next, HEK293 cells expressing WT or mutated ADAM8 proteins or EV DNA were incubated with ADP2 or ADP13 Fabs or Control Ab at their optimal concentrations. Fab binding was detected using Alexa Fluor 488-conjugated secondary antibodies and mean cellular fluorescence determined using the Intellicyt iQue flow cytometry platform. […] This counter-screen strategy facilitates the exclusion of mutants that are locally misfolded or that have an expression defect. Binding of each test Fab to each mutant clone in the alanine scanning library was determined, in duplicate, by high-throughput flow cytometry."}, "G445A": {"biological_target": "T2, G445A (Homo sapiens, UniProt P78325)", "T2 construct": "expressed on HEK293 cells; also called human ADAM8 point mutant G445A", "T2 sequence (ADAM8, looked up)": "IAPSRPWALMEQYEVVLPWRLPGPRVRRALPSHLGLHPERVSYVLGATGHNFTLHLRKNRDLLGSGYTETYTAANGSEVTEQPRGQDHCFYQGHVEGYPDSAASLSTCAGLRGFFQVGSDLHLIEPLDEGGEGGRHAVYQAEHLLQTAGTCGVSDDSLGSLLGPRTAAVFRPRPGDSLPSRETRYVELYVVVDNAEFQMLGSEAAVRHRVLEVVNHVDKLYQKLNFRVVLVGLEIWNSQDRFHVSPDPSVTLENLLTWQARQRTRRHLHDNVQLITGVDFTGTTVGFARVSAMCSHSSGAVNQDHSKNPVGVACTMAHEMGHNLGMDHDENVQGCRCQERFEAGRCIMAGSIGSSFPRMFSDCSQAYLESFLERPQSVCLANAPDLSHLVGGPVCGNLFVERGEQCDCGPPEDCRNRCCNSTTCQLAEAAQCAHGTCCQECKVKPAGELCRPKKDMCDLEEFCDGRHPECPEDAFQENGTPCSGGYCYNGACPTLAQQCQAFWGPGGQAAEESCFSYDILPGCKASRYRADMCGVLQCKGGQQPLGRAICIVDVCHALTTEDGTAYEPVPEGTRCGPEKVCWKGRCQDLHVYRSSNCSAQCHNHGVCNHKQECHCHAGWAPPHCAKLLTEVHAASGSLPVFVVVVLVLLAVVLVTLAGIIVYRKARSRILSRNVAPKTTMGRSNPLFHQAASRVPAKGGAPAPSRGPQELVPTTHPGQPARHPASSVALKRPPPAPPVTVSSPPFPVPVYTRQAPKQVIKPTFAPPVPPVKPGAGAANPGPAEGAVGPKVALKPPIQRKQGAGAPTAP", "experiment": "high-throughput flow cytometry, HEK293 cells with mutant ADAM8, high stringency; range in parentheses; dotted box", "procedure": "as §1, §2"}}, "data": [{"binder": "ADP13 Fab (Fab, V domains shown) VH: EVQLQQSGPEMVKPGTSVKISCKASGYTFTDYYINWVKQSHGKSLEWIGDISPNIGGATYNPKFKGKAILTVDKSARTAYMELRSLTSEDSAVYCCTRGGSSYPYFYAMDYWGQGTSVTVSS VL: DIVMSQSPSSLAVSVGEKVTMSCKSSQSLLYSSNQKKYLAWYQQKPGQSPKLLIYWASTRESGVPDRFTGSGSGTDFTLTISSVKAEDLAVYYCQQFYSYPYTFGGGTKLEINR", "values": [{"measurement": "Binding Reactivity (% WT)", "setting": "V459A", "value": 27.8, "unit": "% WT"}]}, {"binder": "ADP2 Fab (Fab, V domains shown) VH: EVKLVESGGGLVQPGGSLSLSCAASGFSFPDYYMSWVRQPPGKALEWLGFIRDSANGYTTEYIASVKGRFTFSRDNSQSILYLQMNALRAEDSATYYCARYSRYYGMDYWGQGTSVTVSS VL: SIVMTQTPKILLVSAGDRVTITCKASQTVNYDVAWYQQKPGQSPKPVIYFASNRYTGVPDRFTGSGFGTDFTFTISTVQAEDLAVYFCQQDYSAPWTFGGGTKLEIK", "values": [{"measurement": "Binding Reactivity (% WT)", "setting": "G445A", "value": 30.7, "unit": "% WT"}]}]}
